According to US20140072613A1, “Compositions and Methods for Treating Cutaneous Scarring” (priority 2012, published 2014):

How the values were obtained:
Assay in all cases: biochemical
Assay type in all cases: biochemical
266 human kinases [1] = biological target: 266 human kinases (Homo sapiens, UniProt O43293); conditions: ZIPK(h); 100 μM
Procedure, shortened: (§1)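 A filter-capture radiometric assay: phosphorylated cationic substrate binds an anionic membrane and is scintillation-counted, with values referenced to full-activity control.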

266 human kinases [2] = biological target: 266 human kinases (Homo sapiens, UniProt P08581, Y1230C); conditions: Met(Y1248C)(h); 100 μM
Procedure, shortened: as §1

266 human kinases [3] = biological target: 266 human kinases (Homo sapiens, UniProt P08581, Y1230D); conditions: Met(Y1248D)(h); 100 μM
Procedure, shortened: as §1

266 human kinases [4] = biological target: 266 human kinases (Homo sapiens, UniProt P41240); conditions: CSK(h); 100 μM
Sequence of 266 human kinases (Homo sapiens, UniProt P41240) (P41240 whole entry): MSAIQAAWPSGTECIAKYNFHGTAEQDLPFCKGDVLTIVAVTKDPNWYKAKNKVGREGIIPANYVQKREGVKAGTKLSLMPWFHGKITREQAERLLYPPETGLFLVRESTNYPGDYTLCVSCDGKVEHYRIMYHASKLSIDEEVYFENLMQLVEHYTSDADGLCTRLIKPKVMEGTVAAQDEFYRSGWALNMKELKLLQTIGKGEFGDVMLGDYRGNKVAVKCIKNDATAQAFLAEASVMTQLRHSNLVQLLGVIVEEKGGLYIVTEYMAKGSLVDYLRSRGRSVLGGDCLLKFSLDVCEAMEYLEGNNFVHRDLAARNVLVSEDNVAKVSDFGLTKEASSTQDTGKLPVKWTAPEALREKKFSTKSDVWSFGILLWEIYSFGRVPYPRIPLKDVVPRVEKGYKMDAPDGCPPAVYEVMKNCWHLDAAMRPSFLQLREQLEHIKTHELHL
Procedure, shortened: as §1

266 human kinases [5] = biological target: 266 human kinases (Homo sapiens, UniProt P68400); conditions: CK2(h); 100 μM
Sequence of 266 human kinases (Homo sapiens, UniProt P68400) (P68400 whole entry): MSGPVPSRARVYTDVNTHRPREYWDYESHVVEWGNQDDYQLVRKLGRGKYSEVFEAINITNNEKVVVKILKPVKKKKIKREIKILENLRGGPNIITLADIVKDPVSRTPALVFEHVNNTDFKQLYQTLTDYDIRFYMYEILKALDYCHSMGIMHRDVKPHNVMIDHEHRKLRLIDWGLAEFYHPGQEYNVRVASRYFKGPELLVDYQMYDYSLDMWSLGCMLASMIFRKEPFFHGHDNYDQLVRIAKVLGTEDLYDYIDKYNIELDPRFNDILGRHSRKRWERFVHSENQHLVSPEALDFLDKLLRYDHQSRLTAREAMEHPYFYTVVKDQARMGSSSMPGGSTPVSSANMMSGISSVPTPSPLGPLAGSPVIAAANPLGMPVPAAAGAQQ
Procedure, shortened: as §1

266 human kinases [6] = biological target: 266 human kinases (Homo sapiens, UniProt O96017, I157T); conditions: CHK2(I157T)(h); 100 μM
Sequence of 266 human kinases (Homo sapiens, UniProt O96017, I157T) (O96017 whole entry I157T): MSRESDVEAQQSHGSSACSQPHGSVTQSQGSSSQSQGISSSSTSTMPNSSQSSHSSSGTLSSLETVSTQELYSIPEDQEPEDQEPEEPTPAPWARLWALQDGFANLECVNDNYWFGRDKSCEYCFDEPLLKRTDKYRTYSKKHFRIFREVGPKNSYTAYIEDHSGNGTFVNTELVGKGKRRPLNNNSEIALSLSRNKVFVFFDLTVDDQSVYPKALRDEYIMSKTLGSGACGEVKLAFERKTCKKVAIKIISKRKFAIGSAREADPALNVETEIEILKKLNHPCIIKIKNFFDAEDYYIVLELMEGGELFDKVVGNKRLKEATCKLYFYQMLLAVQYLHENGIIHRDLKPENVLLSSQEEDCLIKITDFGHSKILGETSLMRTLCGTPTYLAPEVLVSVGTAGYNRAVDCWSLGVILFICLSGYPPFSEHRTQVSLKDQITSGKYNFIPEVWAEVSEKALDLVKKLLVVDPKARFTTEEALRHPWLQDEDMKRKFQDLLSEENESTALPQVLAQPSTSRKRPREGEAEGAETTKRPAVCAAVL
Procedure, shortened: as §1

266 human kinases [7] = biological target: T1, 266 human kinases (Homo sapiens, UniProt Q12851); conditions: GCK(h); 100 μM
T1 sequence (Q12851 1-820): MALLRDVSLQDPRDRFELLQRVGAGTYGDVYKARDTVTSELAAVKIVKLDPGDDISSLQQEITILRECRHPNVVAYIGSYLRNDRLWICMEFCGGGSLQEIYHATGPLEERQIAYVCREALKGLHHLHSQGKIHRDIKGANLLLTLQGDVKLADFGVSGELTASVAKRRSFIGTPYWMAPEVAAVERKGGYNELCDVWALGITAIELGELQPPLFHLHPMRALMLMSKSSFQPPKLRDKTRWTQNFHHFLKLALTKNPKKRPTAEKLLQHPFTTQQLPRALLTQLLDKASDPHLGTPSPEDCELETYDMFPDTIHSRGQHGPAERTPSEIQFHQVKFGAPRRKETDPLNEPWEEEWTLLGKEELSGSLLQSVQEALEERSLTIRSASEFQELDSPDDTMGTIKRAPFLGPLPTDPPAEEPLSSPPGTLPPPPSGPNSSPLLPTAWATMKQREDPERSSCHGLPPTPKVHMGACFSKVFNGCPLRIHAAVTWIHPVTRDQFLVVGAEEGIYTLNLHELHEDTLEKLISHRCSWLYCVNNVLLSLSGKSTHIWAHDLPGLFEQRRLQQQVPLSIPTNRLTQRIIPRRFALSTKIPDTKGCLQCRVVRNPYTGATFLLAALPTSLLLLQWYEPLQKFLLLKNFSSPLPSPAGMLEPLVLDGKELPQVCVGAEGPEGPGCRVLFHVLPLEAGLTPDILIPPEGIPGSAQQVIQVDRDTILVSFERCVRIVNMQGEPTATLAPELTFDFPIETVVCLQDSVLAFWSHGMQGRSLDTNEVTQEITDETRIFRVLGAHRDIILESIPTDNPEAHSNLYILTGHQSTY
Procedure, shortened: as §1

266 human kinases [8] = biological target: 266 human kinases (Homo sapiens, UniProt P53779); conditions: JNK3(h); 100 μM
Sequence of 266 human kinases (Homo sapiens, UniProt P53779) (P53779 whole entry): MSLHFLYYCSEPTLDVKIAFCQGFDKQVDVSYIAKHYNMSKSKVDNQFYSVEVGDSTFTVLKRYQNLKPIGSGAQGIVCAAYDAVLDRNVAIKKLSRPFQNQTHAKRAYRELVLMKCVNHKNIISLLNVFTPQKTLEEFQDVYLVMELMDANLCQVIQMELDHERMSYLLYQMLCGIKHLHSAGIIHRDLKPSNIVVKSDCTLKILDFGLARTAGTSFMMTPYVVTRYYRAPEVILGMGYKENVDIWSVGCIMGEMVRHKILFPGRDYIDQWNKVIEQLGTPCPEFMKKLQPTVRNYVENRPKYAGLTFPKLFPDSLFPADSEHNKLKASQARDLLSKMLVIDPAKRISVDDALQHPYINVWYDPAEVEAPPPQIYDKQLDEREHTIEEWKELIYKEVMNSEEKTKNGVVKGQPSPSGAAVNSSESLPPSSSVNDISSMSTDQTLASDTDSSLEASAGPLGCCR
Procedure, shortened: as §1

266 human kinases [9] = biological target: T2, 266 human kinases (Homo sapiens, UniProt Q13976); conditions: PKG1α(h); 100 μM
T2 sequence (Q13976 1-671): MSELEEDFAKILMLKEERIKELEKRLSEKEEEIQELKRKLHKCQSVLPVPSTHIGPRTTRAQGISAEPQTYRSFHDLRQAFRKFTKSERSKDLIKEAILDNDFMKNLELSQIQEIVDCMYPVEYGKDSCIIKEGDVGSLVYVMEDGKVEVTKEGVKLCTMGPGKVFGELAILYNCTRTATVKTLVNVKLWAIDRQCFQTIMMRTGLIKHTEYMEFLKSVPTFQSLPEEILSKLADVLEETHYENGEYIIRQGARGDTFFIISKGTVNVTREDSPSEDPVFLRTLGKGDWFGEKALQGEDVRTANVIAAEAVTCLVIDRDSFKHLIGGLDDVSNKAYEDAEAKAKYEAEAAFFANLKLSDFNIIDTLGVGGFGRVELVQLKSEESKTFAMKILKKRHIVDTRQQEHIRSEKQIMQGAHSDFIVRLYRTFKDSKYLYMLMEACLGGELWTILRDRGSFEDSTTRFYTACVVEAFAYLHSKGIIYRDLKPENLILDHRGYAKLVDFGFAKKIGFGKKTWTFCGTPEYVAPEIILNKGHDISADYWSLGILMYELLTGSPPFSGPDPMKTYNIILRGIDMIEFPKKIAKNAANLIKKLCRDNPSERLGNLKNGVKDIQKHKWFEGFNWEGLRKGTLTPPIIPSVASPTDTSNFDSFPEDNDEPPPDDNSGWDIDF
Procedure, shortened: as §1

266 human kinases [10] = biological target: 266 human kinases (Homo sapiens, UniProt P10721, D816V); conditions: cKit(D816V)(h); 100 μM
Procedure, shortened: as §1

Sequence of 266 human kinases (Homo sapiens, UniProt O43293) (O43293 whole entry): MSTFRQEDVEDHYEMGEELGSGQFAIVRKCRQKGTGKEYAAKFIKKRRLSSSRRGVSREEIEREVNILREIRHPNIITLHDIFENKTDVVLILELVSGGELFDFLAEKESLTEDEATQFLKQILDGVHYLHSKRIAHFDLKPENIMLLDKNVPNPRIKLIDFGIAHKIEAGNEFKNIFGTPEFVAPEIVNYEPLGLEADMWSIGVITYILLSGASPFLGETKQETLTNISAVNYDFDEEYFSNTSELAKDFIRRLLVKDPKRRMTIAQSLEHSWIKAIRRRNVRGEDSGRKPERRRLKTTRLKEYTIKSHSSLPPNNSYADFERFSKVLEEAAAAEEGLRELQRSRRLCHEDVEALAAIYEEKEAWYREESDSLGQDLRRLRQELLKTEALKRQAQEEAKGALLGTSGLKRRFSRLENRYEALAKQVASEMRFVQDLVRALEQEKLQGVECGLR

Sequence | % activity (266 human kinases [1]) [%] | % activity (266 human kinases [2]) [%] | % activity (266 human kinases [3]) [%] | % activity (266 human kinases [4]) [%] | % activity (266 human kinases [5]) [%] | % activity (266 human kinases [6]) [%] | % activity (266 human kinases [7]) [%] | % activity (266 human kinases [8]) [%] | % activity (266 human kinases [9]) [%] | % activity (266 human kinases [10]) [%]
HRRIKAWLKKIKALARQLGVAA (mammal) [MMI-0500] | 1 | 73 | 218 | 2 | 93 | 3 | 30 | 171 | 25 | 30
YARAAARQARAKALNRQLGVA (mammal) [MMI-0200] | 67 | 141 | 118 | 33 | 83 | 85 | 99 | 90 | 70 | 118
